Laboratory results as given in patent US10300107B2, “Compositions and methods for CaMKII inhibitors and uses thereof” (THE REGENTS OF THE UNIVERSITY OF COLORADO, priority 2007, dated 2019).

Tests used:
[1] = tested on: CaMKII T-site mutants W237R and 1205K; experiment: Kinase assay with GFP-CaMKIIα T-site mutants; type: biochemical; conditions: substrate syntide2
From the text: In another example, FIG. 3. […] FIG. 3A represents a model of CaMKII kinase domain (Rosenberg et al., 2005) with the substrate binding S-site (indicated), the T286-region binding T-site (indicated), and the regulatory region (shown as ribbon). The arrow indicates the proposed orientation of CN21a binding to the T-site, when the regulatory region is displaced after activation. […] Results are normalized to maximal kinase activity without inhibitor. Error bars show s.e.m. […] Bound CaMKII was eluted and detected by Western blot.
CaMKII activity assays. Standard CaMKII assays were done for 1 min at 30° C. previously described, with 20 nM CaMKII (subunit, not holoenzyme concentration), 50 mM PIPES pH 7.2, 0.1 mg/ml BSA, 10 mM MgCl2, 100 μM [γ-^32P] ATP (˜1 Ci/mmol), 1 mM CaCl2, 1-2 μM CaM, and 30-60 μM AC2 peptide (or syntide2). The reactions were spotted onto Whatman P81 phosphocellulose paper rectangles (˜2×2.5 cm). To remove free radioactivity, the paper rectangles were rinsed and washed for 30 min under agitation in 0.5% phosphoric acid or water. […] Radioactivity of the bound peptides was quantified in a Beckman 6000TA scintillation counter by the Cherenkov method. Any changes of the standard protocol were done as indicated. For assays of the GFP-CaMKIIα mutants, kinase amounts were normalized by GFP fluorescence in the extract, and total protein was adjusted with Cos-7 extracts.

[2] = molecular target: T1, CaM dissociation from CaMKII (Homo sapiens, UniProt Q9UQM7); experiment: TA-CaM dissociation from CaMKII; type: binding; conditions: 5 μM; 150 nM CaMKII, 30 nM TA-CaM
T1 construct: made in house; host or cells: baculovirus/Sf9 cells (CaMKII)
Description: TA-CaM dissociation was assessed by increased TA-CaM (30 nM) fluorescence after dissociation from CaMKII or its CaM-binding domain (CBD) (150 nM) during a chase with unlabeled CaM (60 μM). Buffer contained 50 mM Hepes pH 7.4, 150 mM KCl, 2 mM MgCl2, 2 mM MgADP, 2 mM CaCl2, and 0.1 mg/ml BSA. Fluorescence was measured in a time scan (1 sec samples) at 365 nm excitation and 415 nm emission wavelength on a spectro-fluorometer (Fluorolog3; Horiba Jobin Yvon) and was corrected for photobleach (FIG. 16).

B1: CaM-KIIN: natural CaMKII inhibitor protein expressed in brain (protein, UniProt Q7Z7J9 1-78, looked up)
Calcium/calmodulin-dependent …: MSEVLPYGDEKLSPYGDGGDVGQIFSCRLQDTNNFFGAGQNKRPPKLGQIGRSKRVVIEDDRIDDVLKNMTDKAPPGV
- activity of CaMKII T-site mutants W237R and 1205K compared to GFP-CaMKIIα wild type [1]: significantly less affected
- CaM dissociation from CaMKII [2]: slowed down CaM dissociation from CaMKII
